This passage reports fold more phage recovered than with GST alone results from article PMC3682517.

For the experiment, the target named is GST-AKAP79. In words: phage display recovery; RII phage recovered by GST-AKAP79 compared with GST alone; pilot study (supplemental Fig. S1B).
GST-AKAP79, sequence (P24588 whole entry): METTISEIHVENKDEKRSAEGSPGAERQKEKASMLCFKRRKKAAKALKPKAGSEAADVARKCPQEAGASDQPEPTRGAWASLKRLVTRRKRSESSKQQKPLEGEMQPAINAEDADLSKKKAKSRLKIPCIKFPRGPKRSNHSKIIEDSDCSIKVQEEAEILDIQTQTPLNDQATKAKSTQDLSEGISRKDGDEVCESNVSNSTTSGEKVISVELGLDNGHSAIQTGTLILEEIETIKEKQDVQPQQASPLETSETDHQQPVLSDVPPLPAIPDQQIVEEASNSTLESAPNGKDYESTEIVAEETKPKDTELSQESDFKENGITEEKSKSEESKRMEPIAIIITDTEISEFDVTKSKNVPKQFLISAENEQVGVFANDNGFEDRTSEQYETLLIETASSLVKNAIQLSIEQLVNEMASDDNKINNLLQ

RII phage: PKA RIIα (residues 1–45) displayed on the T7 capsid protein, sequence (P13861 2-404): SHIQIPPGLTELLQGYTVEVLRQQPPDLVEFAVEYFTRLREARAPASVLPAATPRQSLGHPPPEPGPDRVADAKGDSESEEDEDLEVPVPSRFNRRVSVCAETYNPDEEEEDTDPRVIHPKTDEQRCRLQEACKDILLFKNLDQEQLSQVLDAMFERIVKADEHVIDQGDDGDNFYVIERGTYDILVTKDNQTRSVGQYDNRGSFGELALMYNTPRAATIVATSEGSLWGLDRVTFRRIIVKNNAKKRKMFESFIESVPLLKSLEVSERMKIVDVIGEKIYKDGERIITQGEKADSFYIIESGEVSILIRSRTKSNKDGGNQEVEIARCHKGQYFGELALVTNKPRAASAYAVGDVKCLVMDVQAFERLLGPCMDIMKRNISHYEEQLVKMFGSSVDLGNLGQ

Substance “RII phage: PKA RIIα (residues 1–45) displayed on the T7 capsid protein (from UniProt P13861 1-45) (domain or fragment)” registered a fold more phage recovered than with GST alone of 300 fold.
